Results published in patent US20170173105A1, “AUTOASSEMBLING PEPTIDES FOR THE TREATMENT OF PULMONARY LEAKAGE” (3-D MATRIX, LTD., priority 2014, published 2017).

How the values were obtained:
[1] = Rheological properties of pH adjusted peptide solutions and hydrogels (stress/frequency sweep); assay type: physicochemical; conditions: for rheological properties of solutions after pH adjustment: at pH 3.4 (IEIK13 adjusted to 3.7), KLD12 1%, IEIK13 1%, PuraMatrix 1% and 2.5%; for rheological property of solutions at various pH levels: PuraMatrix 2.5% solution, IEIK13 1.5% solution; for rheological property of solutions at various pH levels / rheological property of hydrogels after DMEM treatment at various pH: storage modulus at 1 rad/sec
Procedure: Based on the visual observation of the effect of pH level on the properties of the peptide solutions, the effect on the rheological properties of the peptide solutions after adjusting their pH level to 3.4 (PuraMatrix® and KLD12) or 3.7 (IEIK13) was evaluated. If the pH levels of peptide solutions are higher than 3.5 (PuraMatrix® and KLD12) or 3.7 (IEIK13), the peptide solution began phase separation becoming cloudy. The rheological properties of PuraMatrix®, KLD12 and IEIK13 solutions were higher at pH 3.4. The results are shown in FIG. 2 for KLD12 1%, FIG. 3 for IEIK13 1%, and FIGS. 4-5 for PuraMatrix® 1% and 2.5%, respectively. Stress sweep tests were performed at 10 rad/s. Frequency sweep tests were performed at 1 Pa.
Based on the results of the effect on the rheological properties of the peptide solutions after adjusting their pH level to 3.4 (PuraMatrix® and KLD12) or 3.7 (IEIK13), the effect on the rheological properties of the peptide solutions at various pH levels was evaluated. […] The rheological properties of peptides were evaluated at various concentrations using a rheometer (DHR-1, TA Instruments) with 20 mm plates. The results are shown in FIG. 6A for PuraMatrix® 2.5% solution and FIG. 6B for IEIK13 1.5% solution, respectively. Frequency sweep tests were performed from 1 rad/sec to 10 rad/sec at 1 Pa and the storage modulus at 1 rad/sec was selected for data.
Based on the results of the effect on the rheological properties of the peptide solutions after adjusting their pH level, the effect on the rheological properties of the peptide hydrogels at various pH after DMEM treatment was evaluated and compared to the effect on the rheological properties of the peptide solutions at various pH before DMEM treatment. […] The results are shown in FIGS. 7A-7B for PuraMatrix® and FIGS. 8A-8B for IEIK (SEQ ID NO: 5), respectively. Frequency sweep tests were performed from 1 rad/sec to 10 rad/sec at 1 Pa and the storage modulus at 1 rad/sec was selected for data.

[2] = pH and appearance of 2.5% peptide solutions after adding 0.1 N NaOH; assay type: physicochemical; conditions: for apparent stiffness on pH increase / color of solution on pH increase: pH increase up to approximately 3.5 or less with 0.1 N NaOH, 2.5% solutions
Procedure: To adjust the pH level of the peptide solutions by way of example, 0.1 N NaOH was added to 2 mL of 2.5% peptide solutions and their pH and appearance were measured.

[3] = Gelation of peptide solutions on saline buffer treatment (time sweep); assay type: physicochemical; conditions: saline buffer (0.15 M of NaCl); IEIK13 1.5%, KLD12 1.5%, PuraMatrix 2.5%
Procedure: The effect of salt ionic strength level surrounding peptide solution on the properties of peptide solutions was evaluated to identify the possibility of peptide gelation when the peptide solution is placed into the environment where salt ionic strength level is high. […] Without pH effect, the effect of saline treatment on gelation of peptide solutions were evaluated. […] This is because IEIK13 is much more sensitive to salt ionic strength levels. Fast gelation of IEIK13 at the salt ionic strength level similar to body fluid isotonic salt level may generally improve its function and gelation speed for various clinical applications. The results are shown in FIG. 19 for IEIK13, KLD12 and PuraMatrix® solutions. Time sweep tests were performed at 1 rad/sec and at 1 Pa with 20 mm plates and 500 μm gap distance. […]

[4] = test system: pleural defects in swine lungs; assay: Burst pressure of peptide hydrogels as air sealants on pleural defects of swine lungs; conditions: for ranking of burst pressures: 16 G pleural defects, 2.5% RADA16+0.25 M CaCl2 and 1.5% IEIK13
Excerpt: Swine lungs were obtained from freshly euthanized pigs. An endotracheal tube was inserted through the trachea and primary bronchus into the lung of interest. Pressure was supplied to the lungs with the use of a manual endotracheal intubation pump. The trachea was tied off to prevent air leakage around the tube. The primary bronchus of the other lung was clamped to direct all airflow to the lung of interest. A manometer was used to measure the pressure of air directed into the lungs to induce expansion.
The self-assembling peptide hydrogels were comprised of Ac-RADARADARADARADA-NH2 (i.e. RADA16) (SEQ ID NO: 1), Ac-KLDLKLDLKLDL-NH2 (i.e. KLD12) (SEQ ID NO: 3), or Ac-IEIKIEIKIEIKI-NH2 (i.e. IEIK13) (SEQ ID NO: 2) with either RADA16 or KLD12 alone or mixed with 0.250 M calcium chloride. If alone, the peptides were reconstituted in deionized water. If, however the peptides were reconstituted with 0.250 M calcium chloride solution, the peptides were reconstituted first in deionized water, and subsequently, a 0.500 M solution of calcium chloride was mixed in at a 1:1 ratio.
The pleural defects were created using three different methods to measure the efficacy of the self-assembling peptide hydrogels: (1) A 16 gauge needle was used to puncture the lung and pleura, (2) A 5×5 mm area was measured and the lung and pleura were clipped using a pair of surgical scissors, and (3) A lobectomy (i.e. a complete resection of one lobe of the lung of interest). A 0.9% saline solution was streamed over the defect area and the location of the defect was identified by using the endotracheal intubation pump system to introduce air and observing the release of air bubbles.
Once the location of the defect was identified, the hydrogels were applied to the defect area via two different methods: (1) the hydrogel was applied topically by injecting through a syringe onto the defect area, and (2) the hydrogel was injected into the defect through an 18 gauge needle with overflow to cover the defect area topically. After a relaxation period of 2 min, pressure was applied through the endotracheal intubation pump until a burst pressure was identified. For any additional tests, airflow to the previously tested defect was cut off using a surgical clamp.

[5] = 0.1 N NaOH 0 μL/mL added in 2.5% solution, conc. 2.5%
[6] = 0.1 N NaOH 50 μL/mL added in 2.5% solution, conc. 2.38%
[7] = 0.1 N NaOH 100 μL/mL added in 2.5% solution, conc. 2.27%
[8] = 0.1 N NaOH 150 μL/mL added in 2.5% solution, conc. 2.17%
[9] = 0.1 N NaOH 200 μL/mL added in 2.5% solution, conc. 2.08%
[10] = 0.1 N NaOH 250 μL/mL added in 2.5% solution, conc. 2.0%
[11] = 0.1 N NaOH 300 μL/mL added in 2.5% solution, conc. 1.92%
[12] = 0.1 N NaOH 350 μL/mL added in 2.5% solution, conc. 1.85%
[13] = last line per peptide, NaOH volume and conc. not given
[14] = 0.1 N NaOH 275 μL/mL added in 2.5% solution, conc. 1.96%

Substance	rheological properties of solutions after pH adjustment [1]	Appearance [2, 5]	Peptide solution pH [2, 5]	Appearance [2, 6]	Peptide solution pH [2, 6]	Appearance [2, 7]	Peptide solution pH [2, 7]	Peptide solution pH [2, 8]	Peptide solution pH [2, 9]	Peptide solution pH [2, 10]	Peptide solution pH [2, 11]	Peptide solution pH [2, 12]	Peptide solution pH [2, 13]	apparent stiffness on pH increase [2]	color of solution on pH increase [2]	gelation after saline buffer treatment [3]	rheological property of solutions at various pH levels [1]	rheological property of hydrogels after DMEM treatment at various pH [1]	Peptide solution pH [2, 14]	ranking of burst pressures [4]	other results
Lys-Leu-Asp-Leu-Lys-Leu-Asp-Leu-Lys-Leu-Asp-Leu (Ac-KLDLKLDLKLDL-NH2) [KLD12]	higher	Clear, thick gel	2.1	Clear, thick gel	2.4	Clear, thick gel	2.6	2.9	3.3	4.0	4.7	5.2	7.0	increased	did not change the clear color	no or negligible gelation	–	–	–	–	Peptide solution pH ([2]; 0.1 N NaOH 225 μL/mL added in 2.5% solution, conc. 2.04%): 3.6; Appearance [2, 11]: Cloudy, brittle gel
Ile-Glu-Ile-Lys-Ile-Glu-Ile-Lys-Ile-Glu-Ile-Lys-Ile [IEIK13]	higher	Clear, thick gel	1.8	Clear, thick gel	2.1	Clear, thick gel	2.2	2.7	3.0	3.3	4.0	4.5	7.0	increased	did not change the clear color	fast gelation	increases with pH adjustment up to 3.4	increases with pH adjustment up to 3.4	3.7	best burst pressures	pH level at which the peptide solution began phase separation becoming cloudy [1]: > 3.7; Appearance [2, 12]: Cloudy, brittle gel; Peptide solution pH ([2]; 0.1 N NaOH 400 μL/mL added in 2.5% solution, conc. 1.79%): 5.4
Arg-Ala-Asp-Ala-Arg-Ala-Asp-Ala-Arg-Ala-Asp-Ala-Arg-Ala-Asp-Ala [PuraMatrix ®]	higher	Clear, thick gel	2.2	Clear, thick gel	2.3	Clear, thick gel	2.4	2.7	2.9	3.2	3.6	4.5	7.0	increased	did not change the clear color	no or negligible gelation	increases with pH adjustment up to 3.4	increases with pH adjustment up to 3.4	3.4	best burst pressures	effect of increasing exposure time on burst pressure ([4]; 2.5% RADA16, 16 G pleural defect, varying time points): increased the burst pressure; effect of needle gauge of pleural defect on burst pressure ([4]; 2.5% RADA16 applied topically, 14, 16, 18, and 22 gauge needles): negligible changes in burst pressures; effect of topically added NaCl solution on burst pressure ([4]; 2.5% RADA16 topically, 16 G pleural defect, 0.154 M NaCl gently massaged in): slightly increased
